The test system of this series is FOXA1 P358fs (purified). In words: BLI. The conditions noted are these: buffer, pH and temperature not given.

The text below walks through data of publication PMC6661908.

Take KLK3 enhancer 60 bp: the binding signal (fold higher affinity than WT) was found to be 5.
